Measurements: patent US11203633B2, “Polynucleotides encoding antibodies or antigen binding fragments thereof that bind pseudomonas perv” (priority 2011, dated 2021)

How the values were obtained:
[1] = system: P. aeruginosa (6077 exoU+; 6206) lysis of rabbit red blood cells; assay: Rabbit red blood cell (RBC) lysis inhibition assay; format: cell-based, Pseudomonas aeruginosa; settings: strain 6077; FIG. 12D-E
Experimental: Percent inhibition of cytotoxicity analysis was analysed for the parental V2L2 mAb, mAb166 (positive control) and R347 (negative control), where the antibodies were administered to cultured broncho-epithelial cell line A549 combined with log-phase P. aeruginosa strain 6077 (exoU+) at a MOI of approximately 10. A549 lysis was assayed by measuring released lactate dehydrogenase (LDH) activity and lysis in the presence of mAbs was compared to wells without mAb to determine percent inhibition. The V2L2 mAb, mAb166 (positive control) and R347 (negative control) were evaluated for their ability to prevent lysis of RBCs, where the antibodies were mixed with log-phase P. aeruginosa 6077 (exoU^+) and washed rabbit red blood cells (RBCs) and incubated for 2 hours at 37°. Intact RBCs were pelleted and the extent of lysis determined by measuring the OD405 of the cell-free supernatant. Lysis in the presence of anti-PcrV mAbs was compared to wells without mAb to determine percent inhibition. The positive control antibody, mAb166, is a previously characterized anti-PcrV antibody (J Infect Dis. 186: 64-73 (2002), Crit Care Med. 40: 2320-2326 (2012)).

rPcrV protein = assay: Binding kinetics, Bio-Rad ProteOn XPR36; design: species or system Pseudomonas aeruginosa; settings: antibody captured, rPcrV injected; FIG. 12G-H
Experimental: Binding kinetics of V2L2-GL and V2L2-MD were measured using a Bio-Rad ProteOn™ XPR36 instrument. Antibodies were captured on a GLC bisensor chip using anti-human IgG reagents. rPcrV protein was injected at multiple concentrations and the dissociation phase followed for 600 seconds. Data was captured and analyzed using ProteOn Manager software. […] The clone V2L2-MD had increased Kd by 2-3 folds over V2L2-GL.

B1: V2L2-MD: optimized V2L2-GL mAb; germlined lead optimized anti-PcrV antibody (antibody, V domains shown)
VH: EMQLLESGGGLVQPGGSLRLSCAASGFTFSSYAMNWVRQAPGEGLEWVSAITISGITAYYTDSVKGRFTISRDNSKNTLYLQMNSLRAGDTAVYYCAKEEFLPGTHYYYGMDVWGQGTTVTVSS
VL: AIQMTQSPSSLSASVGDRVTITCRASQGIRNDLGWYQQKPGKAPKLVIYSASTLQSGVPSRFSGSGSGTDFTLSISSLQPDDFATYYCLQDYNYPWTFGQGTKVEIK
modifications: V2L2-MD VH; V2L2-MD and V2L2-GL VL
For B1, the “prevention of RBC lysis” value [1] was “demonstrated prevention of RBC lysis” and the “change of Kd over V2L2-GL” value (rPcrV protein) was 2-3 folds.
